According to publication PMC4256486 (Molecular & Cellular Proteomics : MCP, 2014):

Experiments:
[1] = target: Lgr5 (control), ectopically expressed on CHO cells (Homo sapiens (assumed), UniProt O75473); test: flow cytometry on cells
[2] = target: human ephrin type-A receptor 2 (EphA2), ectopically expressed on CHO cells (Homo sapiens, UniProt P29317); test: flow cytometry on cells
Chain of human ephrin type-A receptor 2 (EphA2), ectopically expressed on CHO cells (P29317 24-976): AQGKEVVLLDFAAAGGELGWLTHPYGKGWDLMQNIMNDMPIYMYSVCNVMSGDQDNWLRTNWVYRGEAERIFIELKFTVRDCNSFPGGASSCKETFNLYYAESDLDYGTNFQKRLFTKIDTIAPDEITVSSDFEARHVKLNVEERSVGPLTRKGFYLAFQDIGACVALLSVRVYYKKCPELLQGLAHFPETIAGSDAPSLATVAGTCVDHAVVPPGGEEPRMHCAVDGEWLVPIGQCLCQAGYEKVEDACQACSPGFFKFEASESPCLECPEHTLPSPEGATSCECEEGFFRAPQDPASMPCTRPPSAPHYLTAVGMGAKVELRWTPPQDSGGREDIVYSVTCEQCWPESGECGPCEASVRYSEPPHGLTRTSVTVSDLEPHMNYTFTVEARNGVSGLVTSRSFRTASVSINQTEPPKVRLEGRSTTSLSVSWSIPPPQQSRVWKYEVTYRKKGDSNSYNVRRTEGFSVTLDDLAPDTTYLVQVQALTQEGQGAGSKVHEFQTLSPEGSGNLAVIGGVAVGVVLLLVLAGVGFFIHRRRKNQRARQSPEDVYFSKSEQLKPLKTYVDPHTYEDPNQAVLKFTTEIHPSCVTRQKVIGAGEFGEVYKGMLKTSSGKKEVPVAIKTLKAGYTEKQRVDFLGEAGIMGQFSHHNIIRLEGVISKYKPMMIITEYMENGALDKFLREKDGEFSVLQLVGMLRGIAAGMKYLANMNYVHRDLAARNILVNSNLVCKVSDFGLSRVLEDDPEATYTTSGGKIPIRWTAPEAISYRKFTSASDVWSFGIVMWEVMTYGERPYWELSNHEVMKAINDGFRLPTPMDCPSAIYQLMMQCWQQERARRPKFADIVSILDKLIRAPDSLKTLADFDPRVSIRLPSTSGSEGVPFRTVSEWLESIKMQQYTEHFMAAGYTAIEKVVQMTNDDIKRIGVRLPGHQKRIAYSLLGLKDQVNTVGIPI

Chain of Lgr5 (control), ectopically expressed on CHO cells (O75473 22-907): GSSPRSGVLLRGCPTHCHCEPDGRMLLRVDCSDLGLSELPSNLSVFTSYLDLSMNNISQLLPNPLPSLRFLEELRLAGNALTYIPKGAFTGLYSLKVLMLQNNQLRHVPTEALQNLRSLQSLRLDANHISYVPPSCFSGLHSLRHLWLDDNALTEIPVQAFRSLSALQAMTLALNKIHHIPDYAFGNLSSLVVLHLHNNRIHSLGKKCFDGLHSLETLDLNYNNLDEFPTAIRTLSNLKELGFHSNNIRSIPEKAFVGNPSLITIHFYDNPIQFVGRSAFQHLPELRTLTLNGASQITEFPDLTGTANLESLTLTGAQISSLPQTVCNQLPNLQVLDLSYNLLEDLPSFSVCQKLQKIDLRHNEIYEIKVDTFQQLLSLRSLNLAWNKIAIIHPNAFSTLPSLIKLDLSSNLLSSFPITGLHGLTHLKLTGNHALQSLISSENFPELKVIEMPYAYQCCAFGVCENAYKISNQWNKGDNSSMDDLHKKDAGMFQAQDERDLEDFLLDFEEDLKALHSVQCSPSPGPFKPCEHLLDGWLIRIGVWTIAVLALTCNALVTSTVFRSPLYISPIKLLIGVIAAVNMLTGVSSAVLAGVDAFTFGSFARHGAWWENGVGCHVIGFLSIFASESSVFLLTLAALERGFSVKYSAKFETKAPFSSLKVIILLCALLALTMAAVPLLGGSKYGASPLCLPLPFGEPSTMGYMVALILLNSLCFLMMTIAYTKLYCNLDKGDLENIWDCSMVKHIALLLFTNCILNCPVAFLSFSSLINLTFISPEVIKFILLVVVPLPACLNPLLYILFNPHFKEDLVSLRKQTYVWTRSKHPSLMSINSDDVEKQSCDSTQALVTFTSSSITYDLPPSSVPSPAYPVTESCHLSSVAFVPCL

B1: IgG HCA-F1 (antibody, V domains shown)
VH: QVQLQESGGGLVQPGGSLRLSCAASGFTFSSYSMNWVRQAPGKGLEWVSYISSSSSTIYYADSVKGRFTISRDNAKNSLYLQMNSLRAEDTAVYYCARYRLPDFWSGYPNYGMDVWGQGTTVTVSS
VL: QSVLTQPPSVSGAPGQRVTISCTGSSSNIGAGYDVHWYQQLPGTAPKLLIYGNSNRPSGVPDRFSGSKSGTSASLAITGLQAEDEADYYCQSYDSSLSGHVVFGGGTKLTVL
binding result [1]: no binding
binding result [2]: binds
